Paper PMC3938430, “Biochemical Characterization of a Haloalkane Dehalogenase DadB from Alcanivorax dieselolei B-5” (PLoS ONE, 2014)

Experiments:
Assay in all cases: steady-state kinetics, gas chromatography (FID)
[1] = target: T1, DadB (Alloalcanivorax dieselolei, UniProt K0CAI2); type: biochemical; details: 100 mM glycine buffer, pH 8.6, 37°C; substrate self-inhibition constant
T1 construct: gene B5T_00392; HLD-II subfamily, nucleophile D108
Source text: (§1) steady-state kinetics, gas chromatography (FID) on DadB

[2] = tested on: T2, BrCCBr; type: biochemical, Alloalcanivorax dieselolei; details: 100 mM glycine buffer, pH 8.6, 37°C
T2 construct: HLD-II subfamily, nucleophile D108
Source text: as §1

[3] = tested on: BrCCCBr; type: biochemical, Alloalcanivorax dieselolei; details: 100 mM glycine buffer, pH 8.6, 37°C
Source text: as §1

[4] = tested on: T3, C=C(C)CCl; type: biochemical, Alloalcanivorax dieselolei; details: 100 mM glycine buffer, pH 8.6, 37°C
T3 construct: HLD-II subfamily, nucleophile D108
Source text: as §1

[5] = tested on: T4, C=C(Cl)CCl; type: biochemical, Alloalcanivorax dieselolei; details: 100 mM glycine buffer, pH 8.6, 37°C
T4 construct: HLD-II subfamily, nucleophile D108
Source text: as §1

[6] = tested on: CCCCCl; type: biochemical, Alloalcanivorax dieselolei; details: 100 mM glycine buffer, pH 8.6, 37°C
Source text: as §1

[7] = tested on: N#CCCCBr; type: biochemical, Alloalcanivorax dieselolei; details: 100 mM glycine buffer, pH 8.6, 37°C, fit with substrate inhibition
Source text: as §1

| Molecule | k i [1] | Km [2] | kcat [2] | kcat/Km [2] | Km [3] | kcat [3] | kcat/Km [3] | Km [4] | kcat [4] | kcat/Km [4] | Km [5] | kcat [5] | kcat/Km [5] | Km [6] | kcat [6] | kcat/Km [6] | Km [7] | kcat [7] | kcat/Km [7] |
| --- | --- | --- | --- | --- | --- | --- | --- | --- | --- | --- | --- | --- | --- | --- | --- | --- | --- | --- | --- |
| N#CCCCBr [4-bromobutanenitrile] | 17.93 ± 1.97 mM | – | – | – | – | – | – | – | – | – | – | – | – | – | – | – | – | – | – |
| DadB (Alloalcanivorax dieselolei B5) | – | 8.70 ± 0.44 mM | 17.9 ± 0.5 s⁻¹ | 2060 M⁻¹ s⁻¹ | 0.82 ± 0.04 mM | 13.4 ± 0.99 s⁻¹ | 16400 M⁻¹ s⁻¹ | 11.33 ± 0.99 mM | 34.3 ± 1.99 s⁻¹ | 3020 M⁻¹ s⁻¹ | 15.06 ± 1.37 mM | 20.1 ± 1.09 s⁻¹ | 1330 M⁻¹ s⁻¹ | 4.88 ± 0.35 mM | 1.17 ± 0.1 s⁻¹ | 240 M⁻¹ s⁻¹ | 8.47 ± 1.27 mM | 30.8 ± 2.49 s⁻¹ | 3640 M⁻¹ s⁻¹ |
